Test results published in patent US7223398.

How the values were obtained:
[1] = target: IgE on basophils of ragweed allergic patients; experiment: cell-based or functional assay
[2] = target: Amb a 1 specific IgE (in serum); experiment: competition ELISA: soluble competitor pre-incubated with serum, IgE binding to plate-coated Amb a 1
[3] = target: Amb a 1 specific IgE (in serum); experiment: competition ELISA, ratio against soluble Amb a 1 as reference
[4] = target: Amb a 1 specific IgE (in serum); experiment: competition ELISA: soluble competitor pre-incubated with serum, IgE binding to plate-coated Amb a 1; two lots gave the same value

Binder	HR40 (concentration required to induce 40% histamine release), patient four [1] [µg/mL]	HR40 (concentration required to induce 40% histamine release), patient one [1] [µg/mL]	HR40 (concentration required to induce 40% histamine release), patient three [1] [µg/mL]	HR40 (concentration required to induce 40% histamine release), patient two [1] [µg/mL]	HR40, mean of four patients [1] [µg/mL]	IC50 [2] [µg/mL]	Ratio AIC:Amb a 1 of HR40 [1] [fold]	ratio of AIC-M to Amb a 1 for 50% inhibition [3]	ratio of AIC-H to Amb a 1 for 50% inhibition [3]	IC50 [4] [µg/mL]
ragweed allergen Amb a 1 (protein, UniProt P27759 26-396, looked up) AEDLQEILPVNETRRLTTSGAYNIIDGCWRGKADWAENRKALADCAQGFGKGTVGGKDGDIYTVTSELDDDVANPKEGTLRFGAAQNRPLWIIFERDMVIRLDKEMVVNSDKTIDGRGAKVEIINAGFTLNGVKNVIIHNINMHDVKVNPGGLIKSNDGPAAPRAGSDGDAISISGSSQIWIDHCSLSKSVDGLVDAKLGTTRLTVSNSLFTQHQFVLLFGAGDENIEDRGMLATVAFNTFTDNVDQRMPRCRHGFFQVVNNNYDKWGSYAIGGSASPTILSQGNRFCAPDERSKKNVLGRHGEAAAESMKWNWRTNKDVLENGAIFVASGVDPVLTPEQSAGMIPAEPGESALSLTSSAGVLSCQPGAPC	0.0003	0.0002	0.0003	0.0002	0.0003	0.04				
AIC-L (covalent conjugate of Amb a 1 and ISS-containing polynucleotide SEQ ID NO:1, low extent of conjugation) (protein, ragweed, UniProt P27759 26-396, looked up, average of 2-3 oligonucleotides (5' thio ISS oligonucleotide, SEQ ID NO:1) per Amb a 1 molecule, linked through the heterobifunctional linker sSMCC; Amb a 1 blocked with N-ethyl maleimide before activation) AEDLQEILPVNETRRLTTSGAYNIIDGCWRGKADWAENRKALADCAQGFGKGTVGGKDGDIYTVTSELDDDVANPKEGTLRFGAAQNRPLWIIFERDMVIRLDKEMVVNSDKTIDGRGAKVEIINAGFTLNGVKNVIIHNINMHDVKVNPGGLIKSNDGPAAPRAGSDGDAISISGSSQIWIDHCSLSKSVDGLVDAKLGTTRLTVSNSLFTQHQFVLLFGAGDENIEDRGMLATVAFNTFTDNVDQRMPRCRHGFFQVVNNNYDKWGSYAIGGSASPTILSQGNRFCAPDERSKKNVLGRHGEAAAESMKWNWRTNKDVLENGAIFVASGVDPVLTPEQSAGMIPAEPGESALSLTSSAGVLSCQPGAPC	0.026	0.02	0.01	0.018	0.0185		62			
AIC-M (covalent conjugate of Amb a 1 and ISS-containing polynucleotide SEQ ID NO:1, medium extent of conjugation) (protein, ragweed, UniProt P27759 26-396, looked up, average of 3.5 to 4.5 oligonucleotides (5' thio ISS oligonucleotide, SEQ ID NO:1) per Amb a 1 molecule, linked through the heterobifunctional linker sSMCC; Amb a 1 blocked with N-ethyl maleimide before activation) AEDLQEILPVNETRRLTTSGAYNIIDGCWRGKADWAENRKALADCAQGFGKGTVGGKDGDIYTVTSELDDDVANPKEGTLRFGAAQNRPLWIIFERDMVIRLDKEMVVNSDKTIDGRGAKVEIINAGFTLNGVKNVIIHNINMHDVKVNPGGLIKSNDGPAAPRAGSDGDAISISGSSQIWIDHCSLSKSVDGLVDAKLGTTRLTVSNSLFTQHQFVLLFGAGDENIEDRGMLATVAFNTFTDNVDQRMPRCRHGFFQVVNNNYDKWGSYAIGGSASPTILSQGNRFCAPDERSKKNVLGRHGEAAAESMKWNWRTNKDVLENGAIFVASGVDPVLTPEQSAGMIPAEPGESALSLTSSAGVLSCQPGAPC	0.07	0.03	0.03	0.028	0.0395	0.12	132	3		
AIC-H (covalent conjugate of Amb a 1 and ISS-containing polynucleotide SEQ ID NO:1, high extent of conjugation) (protein, ragweed, UniProt P27759 26-396, looked up, average of >5.5 oligonucleotides (5' thio ISS oligonucleotide, SEQ ID NO:1) per Amb a 1 molecule, linked through the heterobifunctional linker sSMCC; Amb a 1 blocked with N-ethyl maleimide before activation) AEDLQEILPVNETRRLTTSGAYNIIDGCWRGKADWAENRKALADCAQGFGKGTVGGKDGDIYTVTSELDDDVANPKEGTLRFGAAQNRPLWIIFERDMVIRLDKEMVVNSDKTIDGRGAKVEIINAGFTLNGVKNVIIHNINMHDVKVNPGGLIKSNDGPAAPRAGSDGDAISISGSSQIWIDHCSLSKSVDGLVDAKLGTTRLTVSNSLFTQHQFVLLFGAGDENIEDRGMLATVAFNTFTDNVDQRMPRCRHGFFQVVNNNYDKWGSYAIGGSASPTILSQGNRFCAPDERSKKNVLGRHGEAAAESMKWNWRTNKDVLENGAIFVASGVDPVLTPEQSAGMIPAEPGESALSLTSSAGVLSCQPGAPC	> 1	0.5	> 0.1	> 0.1	> 0.425		> 1420		4.75	0.19
